Laboratory results reported in article PMC3859071, “Development of a Multiplex Sandwich Aptamer Microarray for the Detection of VEGF165 and Thrombin”.

Key:
VEGF165 [1] = biological target: T1, VEGF165 (human, UniProt P15692-4 27-191); assay: sandwich aptamer microarray; detected with VEa5-Cy5; EMSA: TBSE (0.05 mM EDTA, 10 mM Tris-HCl, 100 mM NaCl, pH 7; Vap7 folded with +100 mM KCl), 25 C, 30-60 min, 0.1 uM aptamer; 12% gel in 50 mM glycine pH 9.5 with or without 10 mM KCl. Microarray: TBSE, 25 C, 30 min, PBS washes; settings: protein: commercial; chain copies: 2
T1 sequence (P15692 other isoform, or with tags, fused parts or gaps): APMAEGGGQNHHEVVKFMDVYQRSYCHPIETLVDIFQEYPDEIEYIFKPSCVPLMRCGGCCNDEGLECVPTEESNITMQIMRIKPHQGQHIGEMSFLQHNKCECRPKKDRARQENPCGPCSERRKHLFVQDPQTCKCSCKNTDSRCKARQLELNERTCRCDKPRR

VEGF165 [2] = biological target: T1, VEGF165; assay: EMSA supershift; 10 uM VEGF165; ternary complex; EMSA: TBSE (0.05 mM EDTA, 10 mM Tris-HCl, 100 mM NaCl, pH 7; Vap7 folded with +100 mM KCl), 25 C, 30-60 min, 0.1 uM aptamer; 12% gel in 50 mM glycine pH 9.5 with or without 10 mM KCl. Microarray: TBSE, 25 C, 30 min, PBS washes; settings: protein: commercial; chain copies: 2; label: 5'-FAM on strand 2; two separate aptamers, not a duplex
VEGF165 [3] = biological target: T1, VEGF165; assay: EMSA; 5 uM VEGF165; EMSA: TBSE (0.05 mM EDTA, 10 mM Tris-HCl, 100 mM NaCl, pH 7; Vap7 folded with +100 mM KCl), 25 C, 30-60 min, 0.1 uM aptamer; 12% gel in 50 mM glycine pH 9.5 with or without 10 mM KCl. Microarray: TBSE, 25 C, 30 min, PBS washes; settings: protein: commercial; chain copies: 2; label: 5'-FAM; three stem-loops (predicted)
VEGF165 [4] = biological target: T1, VEGF165; assay: EMSA; 100 mM KCl; EMSA: TBSE (0.05 mM EDTA, 10 mM Tris-HCl, 100 mM NaCl, pH 7; Vap7 folded with +100 mM KCl), 25 C, 30-60 min, 0.1 uM aptamer; 12% gel in 50 mM glycine pH 9.5 with or without 10 mM KCl. Microarray: TBSE, 25 C, 30 min, PBS washes; settings: protein: commercial; chain copies: 2; G4
VEGF165 [5] = biological target: T1, VEGF165; assay: EMSA; EMSA: TBSE (0.05 mM EDTA, 10 mM Tris-HCl, 100 mM NaCl, pH 7; Vap7 folded with +100 mM KCl), 25 C, 30-60 min, 0.1 uM aptamer; 12% gel in 50 mM glycine pH 9.5 with or without 10 mM KCl. Microarray: TBSE, 25 C, 30 min, PBS washes; settings: protein: commercial; chain copies: 2; three stem-loops (predicted)
VEGF165 [6] = biological target: T1, VEGF165; assay: EMSA; 5 uM VEGF165; two shifted bands; EMSA: TBSE (0.05 mM EDTA, 10 mM Tris-HCl, 100 mM NaCl, pH 7; Vap7 folded with +100 mM KCl), 25 C, 30-60 min, 0.1 uM aptamer; 12% gel in 50 mM glycine pH 9.5 with or without 10 mM KCl. Microarray: TBSE, 25 C, 30 min, PBS washes; settings: protein: commercial; chain copies: 2; label: 5'-FAM; G4

TCACGCTTATTTAAGAAGCTGTTTGGTGGAGG (ssDNA, 5'-amino) [Random DNA-NH2]: no binding (VEGF165 [1]).

B1: VEa5-NH2 + Vap7-FAM (mixed)
DNA 1: ATACCAGTCTATTCAATTGGGCCCGTCCGTATGGTGGGTGTGCTGGCCAGATAGTATGTGCAATCA
DNA 2: ATACCAGTCTATTCAATTGCACTCTGTGGGGGTGGACGGGCCGGGTAGA
modifications: 5'-amino on strand 1
B1: binds (VEGF165 [2]).

B2: VEa5-FAM (structured_DNA)
DNA: B1 DNA 1
B2: binds (VEGF165 [3]).

ATACCAGTCTATTCAATTGCACTCTGTGGGGGTGGACGGGCCGGGTAGA (structured_DNA) [Vap7]: binds (VEGF165 [4]).

B3: VEa5 (structured_DNA)
DNA: B1 DNA 1
B3: binds (VEGF165 [5]).

B4: Vap7-NH2 + VEa5-FAM (mixed)
DNA 1: B1 DNA 2
DNA 2: B1 DNA 1
modifications: 5'-amino on strand 1
B4: binds (VEGF165 [2]).

ATACCAGTCTATTCAATTGCACTCTGTGGGGGTGGACGGGCCGGGTAGA (structured_DNA) [Vap7-FAM]: binds (VEGF165 [6]).
